Source: publication PMC9053816, “A polypeptide model for toxic aberrant proteins induced by aminoglycoside antibiotics” (PLoS ONE, 2022)
*: point of attachment. FITC = O=C1OC2(c3ccc(O)cc3Oc3cc(O)ccc32)c2ccc(NC(=S)*)cc21

Target: T1, 6His-DnaK (E. coli DnaK protein) (E. coli, UniProt P0A6Y8 1-638)
T1 construct: molecular chaperone DnaK of E. coli, from the ASKA expression clone; The functional rows concern endogenous DnaK in E. coli BL21 cells; source: purified from the ASKA expression clone by chromatography on Ni-NTA agarose
Assay: MST; 20 nM fluorescein-labelled peptide incubated with varying concentrations of DnaK; 50 mM Tris pH 7.4, 150 mM NaCl, 10 mM MgCl2, 0.05% Tween-20, 0.05% BSA; 1 h at 20°C; Monolith NT.115; three independent trials
Details: both partners purified

T1 sequence (P0A6Y8 whole entry): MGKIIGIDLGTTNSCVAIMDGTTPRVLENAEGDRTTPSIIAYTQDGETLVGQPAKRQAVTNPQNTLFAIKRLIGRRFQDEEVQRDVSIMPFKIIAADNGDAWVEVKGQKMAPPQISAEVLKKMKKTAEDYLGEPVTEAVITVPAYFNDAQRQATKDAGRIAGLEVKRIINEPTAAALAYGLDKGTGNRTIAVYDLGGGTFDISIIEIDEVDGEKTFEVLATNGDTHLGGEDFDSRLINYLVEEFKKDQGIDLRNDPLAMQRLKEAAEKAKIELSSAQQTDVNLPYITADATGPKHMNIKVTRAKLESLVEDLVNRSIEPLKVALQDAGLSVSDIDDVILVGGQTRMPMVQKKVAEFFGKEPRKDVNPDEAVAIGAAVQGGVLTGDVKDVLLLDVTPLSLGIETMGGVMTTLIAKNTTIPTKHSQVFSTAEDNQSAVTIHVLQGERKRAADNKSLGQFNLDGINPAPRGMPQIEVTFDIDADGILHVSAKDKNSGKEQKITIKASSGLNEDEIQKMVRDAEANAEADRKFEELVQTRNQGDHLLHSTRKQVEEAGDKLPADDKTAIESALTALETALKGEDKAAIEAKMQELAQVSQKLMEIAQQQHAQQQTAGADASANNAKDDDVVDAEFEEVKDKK

B1: KL peptide, FITC-TEKAKLVIKLLALGKTEQ (KL decapeptide of ARF48 with flanking extensions) (peptide)
peptide: {FITC}-TEKAKLVIKLLALGKTEQ-NH2
notes: ARF48 is encoded by a +1 alternate reading frame of an Arabidopsis thaliana cDNA and is not a natural protein; The core decapeptide comes from an aberrant alternate-frame polypeptide, not from a natural protein; also called synthetic KL decapeptide; source: synthetic peptide (Peptide 2.0, Inc.)
B1: binds.

B2: NR peptide, FITC-TEKANRLLLTGKTEQ (canonical DnaK peptide substrate NRLLLTG with flanking extensions) (peptide)
peptide: {FITC}-TEKANRLLLTGKTEQ-NH2
notes: canonical DnaK peptide substrate NRLLLTG flanked by the N-terminal extension TEKA and the C-terminal extension KTEQ; source: synthetic peptide (Peptide 2.0, Inc.)
B2: binds.
